According to patent US20230270823A1:
Read-outs that look alike come from different tables or passages of the source.

Experiments:
Test in all cases: cell-based or functional assay
[1] = molecular target: IL-15Rβ/γ chain (IL-2Rβ and common gamma chain) on human CD8+ T cells and NK cells (human) (UniProt P14784)
[2] = molecular target: IL-15Rβ/γ chain (IL-2Rβ and common gamma chain) on human CD8+ T cells and NK cells (human) (UniProt P14784); remark: listed apart in the source
[3] = molecular target: IL-15Rβ/γ chain (IL-2Rβ and common gamma chain) on human CD8+ T cells and NK cells (human) (UniProt P14784); remark: listed apart in the source
[4] = molecular target: IL-15Rβ/γ chain (IL-2Rβ and common gamma chain) on human CD8+ T cells and NK cells (human) (UniProt P14784); remark: listed apart in the source

IL-15Rβ/γ chain (IL-2Rβ and common gamma chain) on human CD8+ T cells and NK cells (human), sequence (P14784 27-551, chain 1 of 2): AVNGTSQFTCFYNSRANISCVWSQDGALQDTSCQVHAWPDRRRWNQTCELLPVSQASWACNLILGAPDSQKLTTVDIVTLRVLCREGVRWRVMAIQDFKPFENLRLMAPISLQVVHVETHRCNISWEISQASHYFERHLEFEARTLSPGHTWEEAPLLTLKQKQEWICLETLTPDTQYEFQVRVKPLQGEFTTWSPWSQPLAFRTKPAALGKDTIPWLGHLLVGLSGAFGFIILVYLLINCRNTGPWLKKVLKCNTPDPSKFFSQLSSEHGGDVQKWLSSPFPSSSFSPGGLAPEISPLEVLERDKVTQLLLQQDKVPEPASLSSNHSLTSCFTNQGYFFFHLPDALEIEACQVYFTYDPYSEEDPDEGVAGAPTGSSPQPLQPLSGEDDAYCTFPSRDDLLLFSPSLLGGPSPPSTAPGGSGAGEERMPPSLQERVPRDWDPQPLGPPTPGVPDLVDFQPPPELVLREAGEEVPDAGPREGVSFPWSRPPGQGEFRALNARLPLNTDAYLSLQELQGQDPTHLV
IL-15Rβ/γ chain (IL-2Rβ and common gamma chain) on human CD8+ T cells and NK cells (human), sequence (P31785 23-369, chain 2 of 2, further chain): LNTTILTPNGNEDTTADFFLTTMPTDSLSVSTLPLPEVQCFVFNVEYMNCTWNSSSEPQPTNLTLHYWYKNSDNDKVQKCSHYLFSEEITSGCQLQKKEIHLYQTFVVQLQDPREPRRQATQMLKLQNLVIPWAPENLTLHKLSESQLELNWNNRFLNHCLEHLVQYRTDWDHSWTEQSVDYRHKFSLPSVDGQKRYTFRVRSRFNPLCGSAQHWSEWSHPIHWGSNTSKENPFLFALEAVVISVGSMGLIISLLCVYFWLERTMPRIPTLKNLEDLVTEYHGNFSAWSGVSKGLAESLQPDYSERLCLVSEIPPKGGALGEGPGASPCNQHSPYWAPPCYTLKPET

EC50, % Ki67 expression, human CD8+ T cells [1]: 28.5 nM | EC50, % Ki67 expression, human NK cells [1]: 5.12 nM | Fold reduced (EC50, % Ki67), human CD8+ T cells [1]: 155 fold | Fold reduced (EC50, % Ki67), human NK cells [1]: 244 fold | EC50, % Ki67 expression, human CD8+ T cells [2]: 651 nM | EC50, % Ki67 expression, human NK cells [2]: 74.3 nM | Fold reduced (EC50, % Ki67), human CD8+ T cells [2]: 2170 fold | Fold reduced (EC50, % Ki67), human NK cells [2]: 2480 fold | EC50, % Ki67 expression, human CD8+ T cells [3]: 145 nM | EC50, % Ki67 expression, human NK cells [3]: 39 nM | Fold reduced (EC50, % Ki67), human CD8+ T cells [3]: 176 fold | Fold reduced (EC50, % Ki67), human NK cells [3]: 231 fold | EC50, % Ki67 expression, human CD8+ T cells [4]: 203 nM | EC50, % Ki67 expression, human NK cells [4]: 35.5 nM | Fold reduced (EC50, % Ki67), human CD8+ T cells [4]: 441 fold | Fold reduced (EC50, % Ki67), human NK cells [4]: 355 fold
B1: W369-BMK1 (XENP24306) (Fc fusion, not shown: a dimerising Fc or GST)
chain: NWVNVISDLKKIEDLIQSMHIDATLYTESNVHPSCKVTAMKCFLLELQVISLESGDASIHDTVQDLIILANNSLSSNGNVTESGCKECEELEEKNIKEFLQSFVHIVQMFINTS
modifications: IL-15Rα-Fc chain, linker, Fc lack entries
